Test results published in patent US20220396635A1 (UNIVERSIT T STUTTGART, published 2022).

B1: scDb/scFv-Fc (1-3)+2, trivalent trispecific anti-EGFRxanti-HER3×anti-CD3 (other)
chain 1: EVQLVESGGGLVQPGGSLRLSCAASGFSLTNYGVHWVRQAPGKGLEWLGVIWSGGNTDYNTPFTSRFTISRDNSKNTLYLQMNSLRAEDTAVYYCARALTYYDYEFAYWGQGTTVTVSSGGGGSQAGLTQPPAVSVAPGQTASITCGRDNIGSRSVHWYQQKPGQAPVLVVYDDSDRPAGIPERFSGSNYENTATLTISRVEAGDEADYYCQVWGITSDHVVFGGGTKLTVLGGGGSGGGGSGGGGSQVQLQQSGPGLVKPSQTLSLTCAISGDSVSSNRAAWNWIRQSPSRGLEWLGRTYYRSKWYNDYAQSLKSRITINPDTPKNQFSLQLNSVTPEDTAVYYCARDGQLGLDALDIWGQGTMVTVSSGGGGSDIQLTQSPSFLSASVGDRVTITCRASQSIGTNIHWYQQKPGKAPKLLIKYASESISGVPSRFSGSGSGTEFTLTISSLQPEDFATYYCQQNNNWPTTFGAGTKLEIKRAAADKTHTCPPCPAPPVAGPSVFLFPPKPKDTLMISRTPEVTCVVVDVSHEDPEVKFNWYVDGVEVHNAKTKPREEQYNSTYRVVSVLTVLHQDWLNGKEYKCKVSNKGLPSSIEKTISKAKGQPREPQVCTLPPSRDELTKNQVSLSCAVKGFYPSDIAVEWESNGQPENNYKTTPPVLDSDGSFFLVSKLTVDKSRWQQGNVFSCSVMHEALHNHYTQKSLSLSPGK
chain 2: DIQMTQSPSSLSASVGDRVTITCRASQDIRNYLNWYQQKPGKAPKLLIYYTSRLHSGVPSRFSGSGSGTDFTFTISSLQPEDIATYYCQQGNTLPWTFGQGTKLEIKRGGGGSGGGGSGGGGSQVQLVQSGAEVKKPGSSVKVSCKASGGTFSGYTMNWVRQAPGQGLEWMGLINPYKGVSTYNGKFKDRVTITADKSTSTAYMELSSLRSEDTAVYYCARSGYYGDSDWYFDVWGQGTLVTVSSAAADKTHTCPPCPAPPVAGPSVFLFPPKPKDTLMISRTPEVTCVVVDVSHEDPEVKFNWYVDGVEVHNAKTKPREEQYNSTYRVVSVLTVLHQDWLNGKEYKCKVSNKGLPSSIEKTISKAKGQPREPQVYTLPPCRDELTKNQVSLWCLVKGFYPSDIAVEWESNGQPENNYKTTPPVLDSDGSFFLYSKLTVDKSRWQQGNVFSCSVMHEALHNHYTQKSLSLSPGK
notes: Trispecific antibody: 1 = HER3, 2 = CD3, 3 = EGFR; also called scDbhu225x3-43-Fc(hole)Δab + scFvhuU3-Fc(knob)Δab
B2: scDb/Fab-Fc (1-3)+2, trivalent trispecific anti-EGFRxanti-HER3×anti-CD3 (other)
chain: B1 chain 1
heavy: QVQLVQSGAEVKKPGSSVKVSCKASGGTFSGYTMNWVRQAPGQGLEWMGLINPYKGVSTYNGKFKDRVTITADKSTSTAYMELSSLRSEDTAVYYCARSGYYGDSDWYFDVWGQGTLVTVSSASTKGPSVFPLAPSSKSTSGGTAALGCLVKDYFPEPVTVSWNSGALTSGVHTFPAVLQSSGLYSLSSVVTVPSSSLGTQTYICNVNHKPSNTKVDKKVEPKSCDKTHTCPPCPAPPVAGPSVFLFPPKPKDTLMISRTPEVTCVVVDVSHEDPEVKFNWYVDGVEVHNAKTKPREEQYNSTYRVVSVLTVLHQDWLNGKEYKCKVSNKGLPSSIEKTISKAKGQPREPQVYTLPPCRDELTKNQVSLWCLVKGFYPSDIAVEWESNGQPENNYKTTPPVLDSDGSFFLYSKLTVDKSRWQQGNVFSCSVMHEALHNHYTQKSLSLSPGK
light: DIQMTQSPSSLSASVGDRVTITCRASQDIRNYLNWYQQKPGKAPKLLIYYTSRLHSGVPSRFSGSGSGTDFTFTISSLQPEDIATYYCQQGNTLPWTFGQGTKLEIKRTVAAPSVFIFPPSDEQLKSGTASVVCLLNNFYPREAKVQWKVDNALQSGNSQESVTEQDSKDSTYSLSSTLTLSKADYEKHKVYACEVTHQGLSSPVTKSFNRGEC
notes: Trispecific antibody: 1 = HER3, 2 = CD3, 3 = EGFR; also called scDbhu225x3-43-Fc(hole)Δab + FdhuU3-Fc(knob)Δab + VLhuU3-CLK
B3: scDb/scFv-Fc (1-2)+3, trivalent trispecific anti-EGFRxanti-HER3×anti-CD3 (other)
chain 1: QVQLQQSGPGLVKPSQTLSLTCAISGDSVSSNRAAWNWIRQSPSRGLEWLGRTYYRSKWYNDYAQSLKSRITINPDTPKNQFSLQLNSVTPEDTAVYYCARDGQLGLDALDIWGQGTMVTVSSGGGGSDIQMTQSPSSLSASVGDRVTITCRASQDIRNYLNWYQQKPGKAPKLLIYYTSRLHSGVPSRFSGSGSGTDFTFTISSLQPEDIATYYCQQGNTLPWTFGQGTKLEIKRGGGGSGGGGSGGGGSQVQLVQSGAEVKKPGSSVKVSCKASGGTFSGYTMNWVRQAPGQGLEWMGLINPYKGVSTYNGKFKDRVTITADKSTSTAYMELSSLRSEDTAVYYCARSGYYGDSDWYFDVWGQGTLVTVSSGGGGSQAGLTQPPAVSVAPGQTASITCGRDNIGSRSVHWYQQKPGQAPVLVVYDDSDRPAGIPERFSGSNYENTATLTISRVEAGDEADYYCQVWGITSDHVVFGGGTKLTVLAAADKTHTCPPCPAPPVAGPSVFLFPPKPKDTLMISRTPEVTCVVVDVSHEDPEVKFNWYVDGVEVHNAKTKPREEQYNSTYRVVSVLTVLHQDWLNGKEYKCKVSNKGLPSSIEKTISKAKGQPREPQVCTLPPSRDELTKNQVSLSCAVKGFYPSDIAVEWESNGQPENNYKTTPPVLDSDGSFFLVSKLTVDKSRWQQGNVFSCSVMHEALHNHYTQKSLSLSPGK
chain 2: EVQLVESGGGLVQPGGSLRLSCAASGFSLTNYGVHWVRQAPGKGLEWLGVIWSGGNTDYNTPFTSRFTISRDNSKNTLYLQMNSLRAEDTAVYYCARALTYYDYEFAYWGQGTTVTVSSGGGGSGGGGSGGGGSDIQLTQSPSFLSASVGDRVTITCRASQSIGTNIHWYQQKPGKAPKLLIKYASESISGVPSRFSGSGSGTEFTLTISSLQPEDFATYYCQQNNNWPTTFGAGTKLEIKRAAADKTHTCPPCPAPPVAGPSVFLFPPKPKDTLMISRTPEVTCVVVDVSHEDPEVKFNWYVDGVEVHNAKTKPREEQYNSTYRVVSVLTVLHQDWLNGKEYKCKVSNKGLPSSIEKTISKAKGQPREPQVYTLPPCRDELTKNQVSLWCLVKGFYPSDIAVEWESNGQPENNYKTTPPVLDSDGSFFLYSKLTVDKSRWQQGNVFSCSVMHEALHNHYTQKSLSLSPGK
notes: Trispecific antibody: 1 = HER3 (3-43), 2 = CD3 (huU3), 3 = EGFR (hu225); also called scDb3-43xhuU3-Fc(hole)Δab + scFvhu225-Fc(knob)Δab
B4: scDb/scFv-Fc (2-1)+3, trivalent trispecific anti-EGFRxanti-HER3×anti-CD3 (other)
chain 1: QVQLVQSGAEVKKPGSSVKVSCKASGGTFSGYTMNWVRQAPGQGLEWMGLINPYKGVSTYNGKFKDRVTITADKSTSTAYMELSSLRSEDTAVYYCARSGYYGDSDWYFDVWGQGTLVTVSSGGGGSQAGLTQPPAVSVAPGQTASITCGRDNIGSRSVHWYQQKPGQAPVLVVYDDSDRPAGIPERFSGSNYENTATLTISRVEAGDEADYYCQVWGITSDHVVFGGGTKLTVLGGGGSGGGGSGGGGSQVQLQQSGPGLVKPSQTLSLTCAISGDSVSSNRAAWNWIRQSPSRGLEWLGRTYYRSKWYNDYAQSLKSRITINPDTPKNQFSLQLNSVTPEDTAVYYCARDGQLGLDALDIWGQGTMVTVSSGGGGSDIQMTQSPSSLSASVGDRVTITCRASQDIRNYLNWYQQKPGKAPKLLIYYTSRLHSGVPSRFSGSGSGTDFTFTISSLQPEDIATYYCQQGNTLPWTFGQGTKLEIKRAAADKTHTCPPCPAPPVAGPSVFLFPPKPKDTLMISRTPEVTCVVVDVSHEDPEVKFNWYVDGVEVHNAKTKPREEQYNSTYRVVSVLTVLHQDWLNGKEYKCKVSNKGLPSSIEKTISKAKGQPREPQVCTLPPSRDELTKNQVSLSCAVKGFYPSDIAVEWESNGQPENNYKTTPPVLDSDGSFFLVSKLTVDKSRWQQGNVFSCSVMHEALHNHYTQKSLSLSPGK
chain 2: B3 chain 2
notes: Trispecific antibody: 1 = HER3, 2 = CD3, 3 = EGFR; also called scDbhuU3x3-43-Fc(hole)Δab + scFvhu225-Fc(knob)Δab
B5: scDb/Fab-Fc (1-2)+3, trivalent trispecific anti-EGFRxanti-HER3×anti-CD3 (other)
chain: B3 chain 1
heavy: EVQLVESGGGLVQPGGSLRLSCAASGFSLTNYGVHWVRQAPGKGLEWLGVIWSGGNTDYNTPFTSRFTISRDNSKNTLYLQMNSLRAEDTAVYYCARALTYYDYEFAYWGQGTTVTVSSASTKGPSVFPLAPSSKSTSGGTAALGCLVKDYFPEPVTVSWNSGALTSGVHTFPAVLQSSGLYSLSSVVTVPSSSLGTQTYICNVNHKPSNTKVDKKVEPKSCGTDKTHTCPPCPAPPVAGPSVFLFPPKPKDTLMISRTPEVTCVVVDVSHEDPEVKFNWYVDGVEVHNAKTKPREEQYNSTYRVVSVLTVLHQDWLNGKEYKCKVSNKGLPSSIEKTISKAKGQPREPQVYTLPPCRDELTKNQVSLWCLVKGFYPSDIAVEWESNGQPENNYKTTPPVLDSDGSFFLYSKLTVDKSRWQQGNVFSCSVMHEALHNHYTQKSLSLSPGK
light: DIQLTQSPSFLSASVGDRVTITCRASQSIGTNIHWYQQKPGKAPKLLIKYASESISGVPSRFSGSGSGTEFTLTISSLQPEDFATYYCQQNNNWPTTFGAGTKLEIKRTVAAPSVFIFPPSDEQLKSGTASVVCLLNNFYPREAKVQWKVDNALQSGNSQESVTEQDSKDSTYSLSSTLTLSKADYEKHKVYACEVTHQGLSSPVTKSFNRGEC
notes: Trispecific antibody: 1 = HER3, 2 = CD3, 3 = EGFR; also called scDb3-43xhuU3-Fc(hole)Δab + Fdhu225-Fc(knob)Δab + VLhu225-CLκ
B6: scDb/Fab-Fc (2-1)+3, trivalent trispecific anti-EGFRxanti-HER3×anti-CD3 (other)
chain: B4 chain 1
heavy: B5 heavy
light: B5 light
notes: Trispecific antibody: 1 = HER3, 2 = CD3, 3 = EGFR; also called scDbhuU3x3-43-Fc(hole)Δab + Fdhu225-Fc(knob)Δab + VLhu225-CLκ

Target: T1, CD3 (UniProt P07766 23-207)
T1 construct: whole, on cells; on cells it stands in the TCR/CD3 complex; also called CD3 on Jurkat cells
Assay: flow cytometry, serial dilution on Jurkat cells (CD3-expressing), PE anti-human Fc detection, n = 1
Protocol: Trivalent, trispecific antibodies were analyzed for their binding to tumor cell lines with different EGFR- and HER3-expression levels (Table 14) by flow cytometry. Adherent cells were washed with PBS and shortly trypsinized at 37° C. Trypsin was quenched with FCS-containing medium and removed by centrifugation (500×g, 5 min.). 1×10⁵ target cells/well (FaDu, LIM1215, SKBR-3, T-47-D, MCF-7 and Jurkat cells) were incubated with a serial dilution of trivalent, trispecific antibodies for 1 h at 4° C. After removing excess of recombinant protein by washing with PBA (PBS, 2% FBS, and 0.02% sodium azide), bound protein was detected using PE-conjugated anti-human Fc mAb (Jackson ImmunoResearch Laboratories Inc). Fluorescence was measured using MACSquant VYB (Miltenyi Biotec) and data were analyzed using FlowJo (Tree Star). Relative median fluorescence intensities (MFI) were calculated as followed: relative MFI=((MFIₛₐₘₚₗₑ-(MFIdetection-MFIcells))/MFIcells).

Binder	EC50
B1	0.6 nM
B2	0.8 nM
B3	1.6 nM
B4	2.6 nM
B5	0.8 nM
B6	1.1 nM
